# Experimental data taken from patent publication US20210317213A1 (AMBRX, published 2021).
# How the values were obtained:
# cyno CD3 [1] = target: T1, cyno CD3 (cyno (cynomolgus monkey), UniProt Q95LI5 22-198); test: flow cytometry (MFI) titration on cyno CD3 (activated cyno PBMC), HEK293 culture supernatant
# T1 construct: whole, on cells; also called CD3 on Cynomolgus T-cells
# Procedure: (§1) Screening for human and cyno CD3 binding: HEK293 culture supernatants were directly used to test for binding to human CD3 in the screening phase. In Round 1 experiment, initially 35 clones were tested for binding to human CD3 at three different protein concentrations, and 13 were selected for detailed binding assays to both human and cyno CD3. An 11-point binding titration curve was generated to both human (FIG. 4A) and cyno CD3 (FIG. 4B) for each clone. […] Similarly, 43 clones were screened in Round 2 experiment. After two-stage screening as described above for Round 1, 11 low-affinity variants were obtained, of which 4 are represented as shown in FIGS. 5A-5B
# human CD3 [2] = target: T2, human CD3 (human, UniProt P07766 23-207); test: flow cytometry (MFI) titration on human CD3 (activated human PBMC), HEK293 culture supernatant
# T2 construct: whole, on cells; also called CD3 on human T-cells
# T2 sequence (P07766 23-207): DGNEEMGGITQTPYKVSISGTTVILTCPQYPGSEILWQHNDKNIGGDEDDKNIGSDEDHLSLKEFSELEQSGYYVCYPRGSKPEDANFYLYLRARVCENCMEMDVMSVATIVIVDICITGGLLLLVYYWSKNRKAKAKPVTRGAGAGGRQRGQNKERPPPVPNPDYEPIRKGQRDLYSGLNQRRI
# Procedure: as §1
# human CD3 [3] = target: T2, human CD3; test: cell binding, activated human PBMC; E. coli protein
# human CD3 [4] = target: T2, human CD3; test: flow cytometry (MFI), 11-point titration on human CD3 (activated human PBMC), HEK293 culture supernatant
# Procedure: as §1
# cyno CD3 [5] = target: T1, cyno CD3; test: flow cytometry (MFI), 11-point titration on cyno CD3 (activated cyno PBMC), HEK293 culture supernatant
# Procedure: as §1
# cyno CD3 [6] = target: T1, cyno CD3; test: cell binding, activated cyno PBMC; E. coli protein
# T1 sequence (Q95LI5 22-198): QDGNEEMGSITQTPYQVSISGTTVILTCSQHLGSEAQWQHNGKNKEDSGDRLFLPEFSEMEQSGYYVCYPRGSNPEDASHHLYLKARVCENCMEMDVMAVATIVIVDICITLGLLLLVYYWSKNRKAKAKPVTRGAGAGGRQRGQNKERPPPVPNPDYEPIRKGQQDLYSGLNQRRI
Binder,EC50 (read off the curve) (cyno CD3 [1]) [pM],EC50 (read off the curve) (human CD3 [2]) [pM],EC50 (human CD3 [3]) [pM],EC50 (read off the curve) (human CD3 [4]) [pM],EC50 (read off the curve) (cyno CD3 [5]) [pM],EC50 (cyno CD3 [6]) [pM]
"Fab1 wildtype (vH1.2+CH1 / vL1.2+CL), humanized anti-CD3 SP34 (Fab, V domains shown, also called Fab1-WT; vH1.2+vL1.2) VH: EVQLVESGGGLVQPGGSLRLSCAASGFTFNTYAMNWVRQAPGKGLEWVARIRSKYNNYATYYADSVKDRFTISRDDSKNILYLQMNSLKTEDTAVYYCVRHGNFGNSYVSWFAYWGQGTLVTVSS VL: QAVVTQEPSLTVSPGGTVTLTCRSSTGAVTTSNYANWVQQKPGQAPRGLIGGTNKRAPGTPARFSGSLLGGKAALTLSGAQPEDEAEYYCALWYSNLWVFGGGTKLTVLG",~2000,~800,930,~700,~600,750
"Fab14 (Fab, V domains shown, distinct from m37 (Fab14-HK129-Folate); also called Fab14 (vH2.5 / vL2.1), wild type from HEK293) VH: EVQLVESGGGLVQPGGSLRLSCAASGFTFNTYAMNWVRQAPGKGLEWVGRIRSKYNNYATYYADSVKDRFTISRDDSKNSLYLQMNSLKTEDTAVYYCARHGNFGNSYVSWFAYWGQGTLVTVSS VL: QAVVTQEPSLTVSPGGTVTLTCRSSTGAVTTSNYANWFQQKPGQAPRGLIGGTNKRAPGVPARFSGSLLGGKAALTLSGAQPEDEAEYYCALWYSNLWVFGGGTKLTVLG",~10000,~5000,–,–,–,–
